The values that follow come from patent publication US20250277030A1, “ANTI-NAPI2B ANTIBODIES AND METHODS OF USE” (Zymeworks BC Inc., priority 2022, published 2025).

The subject of one data set is HCC-78 cells. The data set can be described thus: Internalization by flow cytometry in HCC-78 cells. Format: cell-based, human. Conditions: antibody 10 nM. As for the experimental part: Briefly, antibodies were fluorescently labeled by coupling to a Fab fragment AF488 conjugate targeting anti-Human IgG Fe (Jackson Immuno Research Labs, West Grove, PA; Cat. No. 109-547-008) at a 1:1 molar ratio in PBS pH 7.4 (Thermo Fisher Scientific, Waltham, MA; Cat. No. 10010-023), for 24 hours at 4° C. Cells were seeded at 50,000 cells/well in RPMI 1640, ATCC modification (Thermo Fisher Scientific, Waltham, MA) supplemented with 10% fetal bovine serum (Thermo Fisher Scientific, Waltham, MA) in 48-well plates and incubated overnight under standard culturing conditions (37° C./5% CO2) to allow attachment. […] Following incubation, cells were dissociated, washed, and surface AF488 fluorescence was quenched using an anti-AF488 antibody (Life Technologies, Carlsbad, CA; Cat. No. A-11094) at 100 nM for 30 minutes at 4° C. […] (internalized fluorescence) was detected by flow cytometry on a BD LSRFortessa™ Cell Analyzer (BD Biosciences, Franklin Lake, NJ) with 1,000 minimum events collected per well. The AF488/FITC-A GeoMean (fluorescence signal geometric mean, proportional to anti-Human Fab AF488 labelling) was calculated for the live single cell population using FlowJo™ Version 10.8.1 (BD Biosciences, Franklin Lake, NJ) and plotted using GraphPad Prism Version 9 (GraphPad Software, San Diego, CA).

A short description of data set [1]: Stability (fragmentation) in PBS pH 7.4 at 37° C. by LC-MS. The data set is classed as physicochemical. Conditions: for apparent % desired proteoforms: PBS 37° C., 0.5 mg/ml. As for the experimental part:
(§1) Samples were removed after 0, 7 and 14 days and stored at −80° C. until characterization. For characterization, samples were thawed at room temperature and 50 μg were incubated with 5 μg of recombinant EndoS endoglycosidase for one hour at room temperature. An immunoprecipitation slurry was generated by a 45 min incubation of 95 μL/sample of magnetic Sepharose streptavidin-coated beads with 15 μg/sample of biotinylated goat anti-Human IgG Fc capture antibody, followed by 4 washes with PBS pH 7.4 with the aid of a DynaMag™-2 magnet (Invitrogen™).
(§2) After deglycosylation, plasma-incubated samples were incubated with 95 μL of the immunoprecipitation slurry for 1.5 hrs at room temperature. Then, the slurry underwent 6 washes with PBS pH 7.4 and 2 washes with LC-MS-grade water with the aid of a DynaMag™-2 magnet (Invitrogen™). A final wash with PBS pH 7.4 was performed before elution. Protein was eluted by incubating beads with 35 μL of LC-MS grade water with 20% acetonitrile and 0.1% formic acid for one hour at room temperature. PBS samples were not immunoprecipitated.
(§3) 5 μL of the eluted sample were transferred to glass inserts in LC-MS vials. For LC-MS analysis, 1 μL of sample were injected into a Waters™ BioSuite Phenyl Column, 1000 Å, 10 μm, 4.6 mm×75 mm using a Waters™ ACQUITY™ UPLC I-Class HPLC system coupled to a Waters™ Synapt™ G2-Si HDMS with a column temperature of 70 C and a flow rate of 0.3 mL/min. Mobile phases consisted of A: LC-MS grade water with 0.1% v/v formic acid, 0.025 v/v trifluoroacetic acid and 10% v/v isopropyl alcohol in, and B: acetonitrile with 0.1% v/v formic acid and 10% v/v isopropyl alcohol. The column was pre-equilibrated in 10% mobile phase B before injection. Then, a 20 min 10 to 27% mobile phase B gradient was applied, followed by a 2 min 27 to 90% mobile phase B gradient and a column wash of 2 min at 99% mobile phase B.
(§4) The column was re-equilibrated to 10% mobile phase B for 2 minutes between runs. ESI was performed in positive mode with 3 kV of capillary voltage, 120 C source temperature, 100 V sampling cone voltage, source offset of 80 V, source gas flow of 0 ml/min, desolvation temperature 500 C, cone gas flow 0 μL/Hr, desolvation gas flow […], nebuliser gas flow 6.5 bar. Data format was continuum with analyser set in sensitivity mode, with a m/z range from 500 to 7000.
(§5) Peak integration, MS deconvolution and mass assignments were performed in Protein Metrics Byos® v4.0 using a deconvolution window of 60000-160000 Da with an m/z range of 1000-4000. For all time points, the highest intensity deconvoluted mass was assigned as the reference mass of v29456. […]

Data set [2] in a line: Stability (fragmentation) in mouse plasma at 37° C. by LC-MS. Format: in vitro ADME. The note with it: for apparent % desired proteoforms: Mouse Plasma 37° C., 0.5 mg/ml. As for the experimental part: as §1, §2, §3, §4, §5

B1: v29456: humanized anti-NaPi2b IgG1/kappa antibody H1L2; VH SEQ ID NO:24, VL SEQ ID NO:29 (antibody, V domains shown)
VH: QVQLVQSGAEVKKPGASVKVSCKASGFTFTSYNVHWVRQAPGQGLEWMGAISPGNGDLSYAQKFQGRVTMTRDTSTSTVYMELSSLRSEDTAVYYCARGRTGMGAVDYWGQGTLVTVSS
VL: DVQMTQSPSSLSASVGDRVTITCRASQDVYSYLNWYQQKPGKAVKLLIYYTSRLQSGVPSRFSGSGSGTDYTLTISSLQPEDFATYYCQQYNIFPWTFGQGTKLEIK
modifications: v29452, v29456, v29460 VH (H1); v29453, v29454, v29455, v29456 VL (L2)
B1: the “Internalized Fluorescence Fold-Over Palivizumab” value is recorded as 25.3 fold with HCC-78 cells (HCC-78, 5 hrs) and 59.9 fold in the data set with HCC-78 cells (HCC-78, 24 hrs). For the same molecule, in data set [1] (37° C., 7 and 14 days), the “fragmentation in PBS pH 7.4, in words” value is given as “no evidence of fragmentation”. In addition, the “apparent % desired proteoforms” value in data set [1] (0 days) is 99.8%; in data set [1] (7 days), 99.2%; in data set [1] (14 days) it was 99.6%; in data set [2] (0 days), 99.9%; in data set [2] (7 days), 100.0%; in data set [2] (14 days), 98.4%. In addition, the “fragmentation in mouse plasma, in words” value in data set [2] (37° C., 7 and 14 days) is “no evidence of fragmentation”.
